The DeepSol protein solubility set

test: soluble on expression in E. coli; label from the status in PepcDB or PDB records

Row | Sequence | soluble on expression in E. coli
1 | MSRIEAVFFDCDGTLVDSEVICSRAYVTMFQEFGITLDPEEVFKRFKGVKLYEIIDIVSLEHGVTLAKTEAEHVYRAEVARLFDSAIEGAGALLSAITAPMCVVSNGPNNKMQHSMGKLNMLHYFPDKLFSGYDIQRWKPDPALMFHAAKAMNVNVENCILVDDSVAGAQSGIDAGMEVFYFCADPHNKPIVHPKVTTFTHLSQLPELWKARGWDITA | not soluble
2 | MSLTPRVNSGGAVVADAYGRPLKDLRIAVTPECNLDCFFCHMEGATESGPMRPGSWSPVLSVEDYDIIGEAASRLGVDSFKLTGGEPLIRGDVDKIVAVLARYGEVSMTTNGILLPLKASSLKRAGLARVNVSLHSISEEVYEKITRRRAVKLALKGVEAALKAGLRVKVNMVLLRGLNEGEFWRLLRLAEDLGFDLQVIEVHPAGRGRKVLSSFRRPIDVVEERLSSMAVAVETGRLHNRRVYRLPSGVRVYLVDPVENPVFCMGCYRVRLTWDGRLLPCIYWKGPYPSVAEALKRGGSREEKVWRVMKILLEANALRRPTYLFRLHDGQEPQAPSTGRGLRLTLPGKAKAERLAYSTLKAPLIEG | not soluble
3 | ARVDQTPRIATKETGESLTINCVLRDTACALDSTNWYRTKLGSTKEQTISIGGRYSETVDEGSNSASLTIRDLRVEDSGTYKCKAYRRCAFNTGVGYKEGAGTVLTVK | soluble
4 | MGSDKIHHHHHHMDVANKIKVIDRLRLGFAVLVAKSVTFLVRSLRLGAASVLPGSIARRIEPRLLQLLSQQVQNGVIIIAGTNGKTTTALLLCTILENKGYRVCHNSTGANLENGLMTALLDSTNLVGTLDVDYAILEVDENIVPRVLKPLQPRIILCLNLFRDQLDRYGEVDTISKRWTKVISTLPRETVVIPNADDPTLSLLGQQLPQKVLFFGLNEPEHYLEAIPHAVDSIYCPQCGHSLDYQGVYLSHLGDFTCPSCGFTKSQPTLASREWSQILVGLYNKYNTLAATTAAIELGVDETTIRDTINNFQAAFGRAEDLVIDGKRVRILLSKNPVGTNETIRVVTQSTDKTTLLVLNDRTPDGTDVSWIWDVDTEKLVERGGTLVVSGDRVYDMALRLRYSEKSAQSNLNLIVEADLRQAIATALEHTPATETLHILPTYSAMLEVREVLTGRKIL | not soluble
5 | MSLLNKEALVNRLNASAKRQKADIVIKNGKIMDVYNQEWIYEDIAITDGVIVGLGEYEGENIIDAEGQMIVPGFIDGHVHIESSMVTPIEFAKAVLPHGVTTVVTDPHEIANVSGEKGIEFMLEQARHTPLNIHFMLPSSVPAASFERSGAILKAADLKPFYEEEEVLGLAEVMDYVSVQQAEKDMVQKLLDARVAGKRIDGHLAGLSTDLINIYRTAFVLNDHEVTSKEEALDRIRRGMYVMMREGSVAKNTLNVLPAVNEKNARRFFFCTDDKHVDDLLSEGSVNHQVKMAIQAGLNPFLAYQLGSLNAAECYGLDTKGAIAPGFDADLLFVSDLENVTVTMAMVKGQTVAEDSKAVYQDHASTAAPDQALLDSVKLAAPLNKQDFHMPIDSEQQINVIQIIPNQLETRLVQVPAPVAREFEPDTELDLLKIAVVERHKGLKETGLGVVKGFGFKSGAIATTISHDSHNIIAVGTNDEDIAAAVNKLQEIGGGLTIIKNGEELHSVPLPIAGLLSDQSAEQVNQSLLTLHDKLSLIGFTGGFNPFLTLSFLALPVIPDIKMTTTGLFDVKSFQHISLQEGHHHHHH | soluble
6 | LARMSEREIDISLGTTVGRSLWRLAQGHDDREVAPRAIAKQISVEHTYPKDLVTSRAVDTAIIRASRESHRRLLDDGRGARTVSVKLRMADFRIESRSATLPYATDNLDTVTATALKLARYPDEVGPIRLVGVGLSGLEDARQDILFPELDRVVPVKDTDFEVGVSDPHDSDLEISTTDESPTAIGWRATQDIWHPDYGHGWVQGLGHGKITVRFETRTTGPGKVRTFDTNDALLSSADPINSLDWS | not soluble
7 | EYGYEDLRESSNSLLNHQLSEIDQARLYSCLDHMREVLGDAVPDDILTEAILKHKFDVQKALSVVLEQDG | soluble
8 | MGSDKIHHHHHHMSEALELLGQDIVARAPGVLGHSVAFGELTIVARAASVIDTLTFLRDDAACRFHQLIDLTGVDYPERAARFDVVYHLLSLVKNHRIRLKVSTDEDTPVPSVTPVFPVADWFEREAFDMYGIFFDGHPDLRRILTDYGFHGHPLRKDFPMTGYVEVRYDDELKRVVYEPVKITEFRAFDFLSPWEGAKYALPGDEKAQ | not soluble
9 | MYRSFFYPTRLALLAVGRNFMPMAWWMPASKEPFRFLLAVDRKNHTLSLLRELSEAALAFYPWEERAWVVRAGYLSGGRVDKARRLGVPLRPACCLAHTQVPEGALAVYEMRVSEWPWDGDHALFMGEVVHVEGSAEAKERPILFLGFRDFATLGERWRFRPGGAKPLPREERGKP | soluble
10 | MSLNFDFAENDFRPLAARMRPRTLDEYCGQQHLIGQGKPLRRAIESGHAHSMILWGPPGTGKTTLAEIIAYRINAEVERLSAVTSGVKDIREAIERAKRNRLADRQTILFVDEVHRFNKSQQDAFLPHIEDGTIIFIGATTENPSFELNNALLSRTRVYILKSLTTADVQRVLQQAVADEERGLGKARLNLQANLLHLLAEYVNGDARLALNCLELMADMAEEDENGKKIDRTLLTEVLGERQARFDKGGDRFYDLISAVHKSIRGSAPDAALYWYARIITAGGDPLYVARRLLAIASEDIGNADPRAMQVALSAWDCFTRVGAAEGERAIAQAIVYLAVAPKSNAVYQAFNAAKALAKQAPDYDVPRHLTNAPTQLLKELGNHAEYRYAHDEPNAYAAGENYFPEPLKDTRFYFPGARGMEIKIKEKLDWLRNLDQQSENIREGHHHHHH | not soluble
11 | NHPTRPCTCAPGQVEKYLSRISGPLLDRIDIQVEITPVPFEKISDSRPAESSEKIRQRVVAAREIQSKRFADYSGVHCNAQMDDKLMNRYALPDEKGLQRLRTAMERFDLSARAYGRILKVARTIADLAGSEDVGGEHIAEAIGYRNLDRENWGKA | not soluble
12 | DKFNQFINRVLSHEGGYANHPKDPGGETNWGITKRTAQANGYNGSMRAMTREQAISIYRKAFWERYRADQMPEAVAFQFFDACVNHGYGNAARMLQRAAGVPDDGVIGAVSLKAINSLPENDLLLRFNAERLVFYTKLGTFTSFGKGWVRRVAQN | not soluble
13 | MGSDKIHHHHHHMIPLFDLTRQYERIRGEILNAIDKLISSGNVILGENVRRLEEEIASFTGVKHGVGVASGSDALLIALRAMGVEKGDTVVTTPYTFFATASAPYRLGARVIFVDVDESTFNMDLNQLEHVLKKEKVKAIIPVHLFGRTVDLEALSFLREKYGVMILEDCAQSMGSEWKFSSGEIRKSGSVGDAAIFSFFPTKNLGTYGDGGMIVTNSDEIAEESRILRVHGARKKYFHEKVGYNSRLDEIHAAILRVKLRYLERWTEERTRVARTYQKLFEEKKLPVVYPRVEEKGFRYHVFHQYVVLFENEEVRERVREGLKERGIQTAIYYPLPLHLQKCFRDLGYQEGDFPVAESLSKRSLALPMFPELRDDEIKEVVDTIALFL | not soluble
14 | MGSDKIHHHHHHEQKTATSEMTDVSRLMPVKIKQTVKGQEEEMLIDTVKEANRKNIKFSIAGAQHSMGGHTYYEDGIVLDMTGYNKILSLDQEKKTIRVQSGATWNDIQKYVNPYGLAVKVMQSQNIFTIGGSLSANAHGRDIRYGSLIDTVKSFRLLKADGMIITVTPKDDLFTAVIGGYGLFGVILDVTLELTDDELYVMKTEKMNYSTYSDYFSKHVKGNPDVRMHLARISTAKKGFLKDMYVTNYVLANHQDQLSSYSELKEDEYTGATKFALGLSRRYEWGRNWLWDTQQSYFLSQNGTEISRNNVMRSESKFLEYENNDNTDVLQEYFVPVKEYGSYIDDLRQTLSDEDLNLLNITIRYVQKNEKADLSYAKDDMFSLVLLINEGFSKEDQADTARIIRRMTDVAIKHGGSYYLPYMTYQTKAQMRQAYPKSEAFFQKKRTYDPDERFMNYFYQRYK | not soluble
15 | MGSDKIHHHHHHENLYFQGMTLSITSNFDAGAIDVVSCERADAIRLRVRGDNRSEFAQWFYFRLTGARGERCVMTFENANDCAYPAGWRDYRAVASYDRVNWFRVPTSYDGQMLTIDHTPEFDSIHYAYFEPYSEERHSEFLGAVQQMPQASVVELGRTVEGRPMSLVVLGTPDEAGAAKKKVWIIARQHPGESMAEWFIEGLVKRLVGWGDWSGDPVARKLYDHATFYIVPNMNPDGSVHGNLRTNAAGANLNREWMEPDAERSPEVLVVRDAIHAIGCDLFFDIHGDEDLPYVFAAGSEMLPGFTEQQRVEQSAFIDSFKRASPDFQDEHGYPPGKYREDAFKLASKYIGHRFGCLSLTLEMPFKDNANLPDEHIGWNGARSASLGAAMLGAILEHVRAFA | soluble
16 | MEIHTYEKEFFDLLKRISHYSEAVALMHWDSRTGAPKNGSEDRAESIGQLSTDIFNIQTSDRMKELIDVLYERFDDLSEDTKKAVELAKKEYEENKKIPEAEYKEYVILCSKAETAWEEAKGKSDFSLFSPYLEQLIEFNKRFITYWGYQEHPYDALLDLFEPGVTVKVLDQLFAELKEAIIPLVKQVTASGNKPDTSFITKAFPKEKQKELSLYFLQELGYDFDGGRLDETVHPFATTLNRGDVRVTTRYDEKDFRTAIFGTIHECGHAIYEQNIDEALSGTNLSDGASMGIHESQSLFYENFIGRNKHFWTPYYKKIQEASPVQFKDISLDDFVRAINESKPSFIRVEADELTYPLHIIIRYEIEKAIFSNEVSVEDLPSLWNQKYQDYLGITPQTDAEGILQDVHWAGGDFGYFPSYALGYMYAAQLKQKMLEDLPEFDALLERGEFHPIKQWLTEKVHIHGKRKKPLDIIKDATGEELNVRYLIDYLSNKYSNLYLL | soluble
17 | MTSALATGLATITADGTVLDAWFPAPELTAVDTTGTTVLDGDDIPEHLRLLVGEDADRGVRRQAITTTIADLDAAPIDAYDAYLRLHLLSHRLVKPHGQNLDGIFGLLTNVVWTNHGPCEVKNFDITRAKLQARGPVTVYLVDKFPRMVDYVLPSGVRIGDADRVRLGAHLAEGTTVMHEGFVNFNAGTLGNSMVEGRISAGVVVDDGSDVGGGASIMGTLSGGGKQVISLGKRCLLGANSGCGIPLGDDCVIEAGLYVTAGSKIIVRGAVAEATGLNDGDTTKALELAGANNILFRRNSISGAIEATAWKSQAVELNDALHAN | soluble
18 | MTVKIALLGFGTVASGVPFLLKENGGKINQSAHSDIKVAKVLVKDEDEKNRLLAAGNDFNFVTNVDDILSDQDITIVVELMGRIEPAKTFITRALEAGKHVVTANKDLLAVHGAELLEIAQANKVALYYEAAVAGGIPILRTLANSLASDKITRVLGVVNGTSNFMVTKMVEEGW | not soluble
19 | MGSDKIHHHHHHMSTLPHLGFQVYQPCAPLLPYVRCYWQITRIAAPETRSTEFMHPEGGTGIIFNFGAPMHFDGWQHRAQCLVTGPTKQSTRLELSGRVDALGIRFWPGAGRAFLKTPLSEMLGQTLTPADLSLALLSDELAERLAVLPTAPERIALLETRLLHYLTAHGSQTQTTEPSMKYALNWIAEQKGQGEIRNLLTEIDISQRQLERLFQQNLGMSPKNYSILQRTGFARELLKSDTDSPLTDIGYQAGFYDQAHFIREFKQVIGITPGQFRSKALLRR | not soluble
20 | MANVYDLANELERAVRALPEYQAVLTAKSAIESDADAQVLWQDFLATQSKVQEMMQSGQMPSQEEQDEMSKLGEKIESNDLLKVYFDQQQRLSVYMSDIEKIVFAPMQDLM | not soluble
21 | MIYPLPAILVSCGKDESEYNIITVAWTGTICTNPPMCYISVRPERHSYDIIKKNMEFVINLTTKDMAFPTDWCGVRSGRNYRKFEEMKLTPGRCTVVSAPLIEESPLCIECRVKEIVSLGSHDMFIADVVNVRADDRNLNPETGKFELAEANPLVYVHGGYYDLGEKIGKFGWSVEKKK | not soluble
